Measured values reported in the DeepSol protein solubility set.

test: soluble on expression in E. coli; label from the status in PepcDB or PDB records

Sequence	soluble on expression in E. coli
MGSDKIHHHHHHMRDHVEIGIGREARRTYSLDDISVVSSRRTRSSKDVDTTWHIDAYKFDLPFMNHPSDALASPEFVIEMGKQGGLGVINAEGLWGRHADLDEAIAKVIAAYEEGDQAAATRTLQELHAAPLDTELLSERIAQVRDSGEIVAVRVSPQNVREIAPIVIKAGADLLVIQGTLISAEHVNTGGEALNLKEFIGSLDVPVIAGGVNDYTTALHMMRTGAVGIIVGGGENTNSLALGMEVSMATAIADVAAARRDYLDETGGRYVHIIADGSIENSGDVVKAIACGADAVVLGSPLARAEEAAGKGYFWPAVAAHPRFPRGVVTESVDLDEAAPSLEQILHGPSTMPWGVENFEGGLKRALAKCGYTDLKSFQKVSLHVN	not soluble
MSTQFKLPLASPLTHGREDFAVSPSNGEAVARLDAWPDWAEGRLVLVGPAGCGKSHLARAWAAAAGAVVVEAANPDAASVDLSALRGRAVLVEDADRRAQGAAVSDEALFHILNMAGVDGGTVLLTGRTAPLTWSAEVADLRSRLNALSVAEIAEPDDAVLEAVLRRAFAAAWWKPEPDLYPYLLARLPRSAAEAQAAAALLAEAAADGRRELTKALAREVLEGFEGDEGLEHHHHHH	not soluble
MGSDKIHHHHHHMPSLREQQHPLIRQLADCIEAAWHQHLDLSPYHLPDELGYVEGRLEGEKLTIENRCYQTPQFRKMHLELANIGNMLDILHCVMFPRPQYNLPMFGCDLVGGRGQISAAIADLSPIQLERTLPESYTTALAQLPVLNFSQPRELPEWGNIFSDFCIFVRPGSPEEEAMFLSRVREFLDIHCMQAIASHPVSVEQVTQNLAGQHNYCTKQQQNDKTRRVLEKAFGPVWAENYMTTVLFDLPT	not soluble
MKLALLGRQALMGVMAVALVAGMSAKSFADEGLLNKVKERGTLLVGLEGTYPPFSFQGEDGKLTGFEVDFAEALAKHLGVKASLKPTKWDGMLASLDAKRIDVVINQVTISDVRKKKYDFSTPYTVSGIQALVKKGNEGTIKTAADLQGKKVGVGLGTNYEEWLRQHVQGVDIRTYDDDPTKYQDLRVGRIDAILVDRLAALDLVKKTKGTLAVTGDAFSRQESGVALRKGNEDLLKAVDNAIAEMQKDGTLKALSEKWFGADVTQ	not soluble
MFKKLFGKGKEVQKDIAIYAPLTGEFVKIEDIPDPVFAQKMMGEGFGINPTEGEVVSPIAGRVDNVFPTKHAIGLKADNGLELLVHIGLDTVQLDGEGFEVLVSSGDEVNVGDPLVRFNLEYINNNAKSVISPIIITNTDQAASINIYDENAVIKGETKVIDVTMN	not soluble
MAWWKAWIEQEGVTVASSSHFNPDPDAETLYKAMKGIGTNEQAIIDVLTKRSNTQRQQIAKSFKAQFGKDLTETLKSELSGKFERLIVALMYPPYRYEAKELHDAMKGLGTKEGVIIEILASRTKNQLREIMKAYEEDYGSSLEEDIQADTSGYLERILVCLLQGSRDDVSSFVDPALALQDAQDLYAAGEKIRGTDEMKFITILCTRSATHLLRVFEEYEKIANKSIEDSIKSETHGSLEEAMLTVVKCTQNLHSYFAERLYYAMKGAGTRDGTLIRNIVSRSEIDLNLIKCHFKKMYGKTLSSMIMEDTSGDYKNALLSLVGSDP	soluble
MEFEFIKNTLLGEYAVRCNMEHQIVGRWLQEEIGQDLAKLKHVLTLIDKAEQSPAQEFLWTGREISLLVQGDEITVQENALAYESEHELETDFALYDSESIAACGREDFVALLTQWQSFIQNQGRF	not soluble
MSLKITADEALTLSKSNGSDIFLLCSFANKLREKFNGNHVDLCSVINAKSGNCSEDCAFCAQSAHHKANVSCYPLLNEDKILEMAKQREAYGARHCDIATSGLGYTGDEKDFQTILKAFKKMKENTNLKLCACLGTLTEKAMNSLAAVGVERYNHNLETAKSFYKNIVSTHGYDERIKTINYAKNAKMEVCSGMIVGLGETMEQRIEHALLLRDLNVDAVPVNILNPVKGTKLENAKPLSPMEIIKTFAIIRFILPDKIIRYAGGREKNLRSLQPLGFLSGLNGMLIGNYLTTNGQSVNDDFNMLKDLELEYEGHHHHHH	not soluble
GVWRQYASRALQELGAGKRAIHDVADLTRGSLRIAVTPTFTSYFIGPLMADFYARYPSITLQLQEMSQEKIEDMLCRDELDVGIAFAPVHSPELEAIPLLTESLALVVAQHHPLAVHEQVALSRLHDEKLVLLSAEFATREQIDHYCEKAGLHPQVVIEANSISAVLELIRRTSLSTLLPAAIATQHDGLKAISLAPPLLERTAVLLRRKNSWQTAAAKAFLHMALDKCAVVGGNESR	soluble
MGSDKIHHHHHHAQIADRVYKTDYHIDPEKARELSVELDNISFFKDNEYTGKFTKGYSLPGLWVQGKAVYYPLRNIKLEAGVHMLIYHGANKYPSMAYQDIAYWKGDQYQKGVHVLPYFRAQMALSDHVNIVLGNIYGASNHNLIEPLYNPELNLTCDPEAGLQLLYDSKAFDLDVWVNWQSFIFREDVHQEAFTVGISSRLKYNDPASRFHFYTPVQGLVQHRGGEIDTIFNNSVQTLMNGAIGVGGVWNTGHRIFKNLNVELDATGYYQQAGEIWPFDSGYGLYARASADIYDFRVKTSYWTCEDFISMFGSPFFGAASMIDEGVTFDRPQMIYLGVEYSRQLAKGFSIGVDVDVFHHLSGDMNDADGVKQPMGSATSFTAGVYMRINPSFLIKKF	not soluble
MNVLKEVYATIEKRIEEKPEGSYVAKLTTDDKKTAVNKICEKVGEEAAEVIIAAKDNDKAEIIYESADLIFHTMVLLAKSGITYEELSEEFKKRMKLEHHHHHH	not soluble
MKRLLILTALLPFVGFAQPINTLNNPNQPGYQIPSQQRMQTQMQTQQIQQKGMLNQQLKTQTQLQQQHLENQINNNSQRVLQSQPGERNPARQQMLPNTNGGMLNSNRNPDSSLNQQHMLPERRNGDMLNQPSTPQPDIPLKTIGP	soluble
MASLCNSIIGWIKNDKEVRLRKRGDTSRRDAVEAGFEPRDTVPRCHSTQSLRDVQRVRSYNNSQFQASDLSLNPNGSIRAACDSTSGSVAPTAVVNPARNHVISHRQQHHTSYEKDLIPHHNIDVDRRRSLQALNGSSALYQLNNGGSPNGVRSQFSPSDLSIHTPVHHVGSRVRVSSVNQICDSNSAPQFSIDQRRSVHNIGNPVRNSFVDGIKTTSTPKNQIAVAPLAHKSRHLSESRDEMRGGAERRGSGGQMNLPAYTNYLIRHSGEERLVDGPVTNASDARIAYLEKRIRELELTQKEQSSHSTPSQSRHSSSKSSHFNGSSNLSTSEQLRLQEMSDELANKDRKVTSLESKLLKAYQRIERLNEEYDGKIKNLMYDSERARDDLTRCVDKIQQLENELDETRAAVQNGDHANEQEYHELRDKIWKQERELQESRTLLTRLREKEAEFERMRSEKGYLELKNENLNKKLEAKKRAVEELERSVSTLRLEQTICQQSCSSGSTPLADEMEIMSDIRPSLARPYTKAHSTLGSHNMSPLSHSKSSGLTKSFSNFALNSSKQRDDITANMSRSIREQNRHITMCRAMVVCLKDTVDRMARGENPDVARLLGVKLNVMSESEMEDDEDHEADASQPFSMMSAESALSKQCGKLADLDKDLDTIRCQLADWHGQTNAEGDGDRDVCRVQ	not soluble
MVGGLTHVDEKGVKMVEIGYKDVVFRKAVAKGRIKLKPETVKLIKEGKIEKGNVLATAQIAGILAVKRTPELIPLCHPIPITGVDITFDFGEDYIEVTCEVRAYYKTGVEMEALTGVTVALLAIWDMVKAVEKDEKGQYPYTRIENVHVVEKVKTHNSQ	soluble
MWYTGTGDKGKTKVPSVGEVWKDSEIVKALGDLDELNSVLGVVSSLYPELSEVIQKLQNDIFSISSEIAGFDMNFSDEKVKGIEELITNYSKELEPLRNFVLPGGHIASSFLHLARAVCRRAERSVVTLLKESKAKEVHAKYLNRLSSLLFVLALVVNKRTNNPNVIWRGKD	soluble
MTVKIALLGFGTVASGVPFLLKENGGKINQSAHSDIKVAKVLVKDEDEKNRLLAAGNDFNFVTNVDDILSDQDITIVVELMGRIEPAKTFITRALEAGKHVVTANKDLLAVHGAELLEIAQANKVALYYEAAVAGGIPILRTLANSLASDKITRVLGVVNGTSNFMVTKMVEEGWSYDDALAEAQRLGFAESDPTNDVDGIDAAYKMVILSQFAFGMKIAFDDVAHKGIRNITPEDVAVAQELGYVVKLVGSIEETSSGIAAEVTPTFLPKAHPLASVNGVMNAVFVESIGIGESMYYGPGAGQKPTATSVVADIVRIVRRLNDGTIGKDFNEYSRDLVLANPEDVKANYYFSILALDSKGQVLKLAEIFNAQDISFKQILQDGKEGDKARVVIITHKINKAQLENVSAELKKVSEFDLLNTFKVLGE	soluble
